# T1: B7H3 (human, UniProt Q5ZPR3 29-466, limits assumed)
# T1 sequence (looked up): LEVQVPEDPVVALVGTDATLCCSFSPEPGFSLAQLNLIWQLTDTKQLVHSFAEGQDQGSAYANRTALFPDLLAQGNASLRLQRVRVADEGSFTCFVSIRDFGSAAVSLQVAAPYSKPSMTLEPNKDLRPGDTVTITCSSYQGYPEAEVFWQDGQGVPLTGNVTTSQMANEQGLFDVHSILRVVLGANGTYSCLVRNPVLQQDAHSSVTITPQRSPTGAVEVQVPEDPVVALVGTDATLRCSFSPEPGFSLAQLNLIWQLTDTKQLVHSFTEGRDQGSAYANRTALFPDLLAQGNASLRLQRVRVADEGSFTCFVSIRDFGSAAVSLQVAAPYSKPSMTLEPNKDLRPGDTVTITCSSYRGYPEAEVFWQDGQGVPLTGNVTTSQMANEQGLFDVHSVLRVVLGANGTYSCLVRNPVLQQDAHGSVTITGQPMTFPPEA
# T2: B7H3 (human, UniProt Q5ZPR3 29-466, limits assumed)
# T2 construct: Tumor associated antigen; also called huB7H3
# T2 sequence (looked up): T1 sequence (looked up)
# B1: Ly2385 (other)
# chain 1: QVQLVQSGAEVKKPGASVKVSCKASGYTFTSYVMHWVRQKPGQGLEWIGYINPYNEGTESTDKFKGRATMTSDKSTSTVYMELSSLRSEDTAVYYCASIYYGYEGTYFGVWGQGTLVTVSSASTKGPSVFPLAPSSKSTSGGTAALGCLVKDYFPEPVTVSWNSGALTSGVHTFPAVLQSSGLYSLSSVVTVPSSSLGTQTYICNVNHKPSNTKVDKKVEPKSCGGSEVQLVESGGGLVQPGGSLRLSCAASGFTFSTYAMNWVRQAPGKGLEWVGRIRSKYNNYATYYADSVKGRFTISRDDSKNSLYLQMNSLKTEDTAVYYCVRHGNFGNSYVSWFAYWGQGTLVTVSSGGGGSDKTHTCPPCPAPEAAGPSVFLFPPKPKDTLMISRTPEVTCVVVDVSHEDPEVKFNWYVDGVEVHNAKTKPREEQYNSTYRVVSVLTVLHQDWLNGKEYKCKVSNKALPAPIEKTISKAKGQPREPQVYTLPPSREEMTKNQVSLWCLVKGFYPSDIAVEWESNGQPENNYKTTPPVLDSDGSFFLYSKLTVDKSRWQQGNVFSCSVMHEALHNHYTQKSLSLSPGGGGGSGGGGSGGGGSGGGGSQVQLVQSGAEVKKPGASVKVSCKASGYTFAGFEMHWVRQAPGQGLEWMGAIDPKTGGTDYNQKFKDRVTMTRDTSISTAYMELSRLRSDDTAVYYCARDLGYFDVWGQGTLVTVSS
# chain 2: QVQLVQSGAEVKKPGASVKVSCKASGYTFTSYVMHWVRQKPGQGLEWIGYINPYNEGTESTDKFKGRATMTSDKSTSTVYMELSSLRSEDTAVYYCASIYYGYEGTYFGVWGQGTLVTVSSASTKGPSVFPLAPSSKSTSGGTAALGCLVKDYFPEPVTVSWNSGALTSGVHTFPAVLQSSGLYSLSSVVTVPSSSLGTQTYICNVNHKPSNTKVDKKVEPKSCGGSQAVVTQEPSLTVSPGGTVTLTCRSSTGAVTTSNYANWVQQKPGQAPRGLIGGTNKRAPWTPARFSGSLLGGKAALTITGAQAEDEADYYCALWYSNLWVFGGGTKLTVLGGGGSDKTHTCPPCPAPEAAGPSVFLFPPKPKDTLMISRTPEVTCVVVDVSHEDPEVKFNWYVDGVEVHNAKTKPREEQYNSTYRVVSVLTVLHQDWLNGKEYKCKVSNKALPAPIEKTISKAKGQPREPQVYTLPPSREEMTKNQVSLSCAVKGFYPSDIAVEWESNGQPENNYKTTPPVLDSDGSFFLVSKLTVDKSRWQQGNVFSCSVMHEALHNRFTQKSLSLSPGGGGGSGGGGSGGGGSGGGGSDIQMTQSPSSLSASVGDRVTITCRASQDIRSNLNWYQQKPGGAVKLLIYYTSRLHSGVPSRFSGSGSGTDYTLTISSLQPEDFATYFCQQSEKLPRTFGGGTKVEIR
# light: EIVLTQSPATLSLSPGERATLSCRASSSVSYMHWYQQKPGQAPRPWIYATSNLASGIPARFSGSRSGTDYTLTISSLEPEDFAVYYCQQWSSNTLTFGGGTKVEIKRTVAAPSVFIFPPSDEQLKSGTASVVCLLNNFYPREAKVQWKVDNALQSGNSQESVTEQDSKDSTYSLSSTLTLSKADYEKHKVYACEVTHQGLSSPVTKSFNRGEC
# notes: Tri-specific antibody: B7H3 Fabs, central CD3 Fv, terminal CD137 Fv; Flexible linker is G2S
# B2: Ly2279 (bispecific antibody)
# chain 1: not shown
# chain 2: QVQLVQSGAEVKKPGASVKVSCKASGYTFTSYVMHWVRQKPGQGLEWIGYINPYNEGTESTDKFKGRATMTSDKSTSTVYMELSSLRSEDTAVYYCASIYYGYEGTYFGVWGQGTLVTVSSASTKGPSVFPLAPSSKSTSGGTAALGCLVKDYFPEPVTVSWNSGALTSGVHTFPAVLQSSGLYSLSSVVTVPSSSLGTQTYICNVNHKPSNTKVDKKVEPKSCGGGGSGGGGSGGGGSGGGGSDIQMTQSPSSVSASVGDRVTITCRASQGIYSWLAWYQQKPGKAPNLLIYTASTLQSGVPSRFSGSGSGTDFTLTISSLQPEDFATYYCQQANIFPLTFGGGTKVEIKGGGGSDKTHTCPPCPAPEAAGPSVFLFPPKPKDTLMISRTPEVTCVVVDVSHEDPEVKFNWYVDGVEVHNAKTKPREEQYNSTYRVVSVLTVLHQDWLNGKEYKCKVSNKALPAPIEKTISKAKGQPREPQVYTLPPSREEMTKNQVSLSCAVKGFYPSDIAVEWESNGQPENNYKTTPPVLDSDGSFFLVSKLTVDKSRWQQGNVFSCSVMHEALHNRFTQKSLSLSPG
# light: B1 light
# notes: B7H3/CD40: two B7H3 Fabs, central CD40 Fv (TM383)
# B3: Ly2424 (bispecific antibody, human IgG1, kappa)
# chain 1: not shown
# chain 2: QVQLVQSGAEVKKPGASVKVSCKASGYTFTSYVMHWVRQKPGQGLEWIGYINPYNEGTESTDKFKGRATMTSDKSTSTVYMELSSLRSEDTAVYYCASIYYGYEGTYFGVWGQGTLVTVSSASTKGPSVFPLAPSSKSTSGGTAALGCLVKDYFPEPVTVSWNSGALTSGVHTFPAVLQSSGLYSLSSVVTVPSSSLGTQTYICNVNHKPSNTKVDKKVEPKSCDKTHTCPPCPAPEAAGPSVFLFPPKPKDTLMISRTPEVTCVVVDVSHEDPEVKFNWYVDGVEVHNAKTKPREEQYNSTYRVVSVLTVLHQDWLNGKEYKCKVSNKALPAPIEKTISKAKGQPREPQVYTLPPSREEMTKNQVSLSCAVKGFYPSDIAVEWESNGQPENNYKTTPPVLDSDGSFFLVSKLTVDKSRWQQGNVFSCSVMHEALHNRFTQKSLSLSPGGGGGSGGGGSGGGGSGGGGSDIQMTQSPSSVSASVGDRVTITCRASQGIYSWLAWYQQKPGKAPNLLIYTASTLQSGVPSRFSGSGSGTDFTLTISSLQPEDFATYYCQQANIFPLTFGGGTKVEIK
# light: B1 light
# notes: B7H3/CD40: two B7H3 Fabs, terminal CD40 Fv (TM383)
# B4: Ly1965 (bispecific antibody)
# chain 1: QVQLVQSGAEVKKPGASVKVSCKASGYTFTSYVMHWVRQKPGQGLEWIGYINPYNEGTESTDKFKGRATMTSDKSTSTVYMELSSLRSEDTAVYYCASIYYGYEGTYFGVWGQGTLVTVSSASTKGPSVFPLAPSSKSTSGGTAALGCLVKDYFPEPVTVSWNSGALTSGVHTFPAVLQSSGLYSLSSVVTVPSSSLGTQTYICNVNHKPSNTKVDKKVEPKSCGGGGSGGGGSGGGGSGGGGSEVQLVESGGGLVQPGGSLRLSCAASGFTFSTYAMNWVRQAPGKGLEWVGRIRSKYNNYATYYADSVKGRFTISRDDSKNSLYLQMNSLKTEDTAVYYCVRHGNFGNSYVSWFAYWGQGTLVTVSSGGGGSDKTHTCPPCPAPEAAGPSVFLFPPKPKDTLMISRTPEVTCVVVDVSHEDPEVKFNWYVDGVEVHNAKTKPREEQYNSTYRVVSVLTVLHQDWLNGKEYKCKVSNKALPAPIEKTISKAKGQPREPQVYTLPPSREEMTKNQVSLWCLVKGFYPSDIAVEWESNGQPENNYKTTPPVLDSDGSFFLYSKLTVDKSRWQQGNVFSCSVMHEALHNHYTQKSLSLSPG
# chain 2: QVQLVQSGAEVKKPGASVKVSCKASGYTFTSYVMHWVRQKPGQGLEWIGYINPYNEGTESTDKFKGRATMTSDKSTSTVYMELSSLRSEDTAVYYCASIYYGYEGTYFGVWGQGTLVTVSSASTKGPSVFPLAPSSKSTSGGTAALGCLVKDYFPEPVTVSWNSGALTSGVHTFPAVLQSSGLYSLSSVVTVPSSSLGTQTYICNVNHKPSNTKVDKKVEPKSCGGGGSGGGGSGGGGSGGGGSQAVVTQEPSLTVSPGGTVTLTCRSSTGAVTTSNYANWVQQKPGQAPRGLIGGTNKRAPWTPARFSGSLLGGKAALTITGAQAEDEADYYCALWYSNLWVFGGGTKLTVLGGGGSDKTHTCPPCPAPEAAGPSVFLFPPKPKDTLMISRTPEVTCVVVDVSHEDPEVKFNWYVDGVEVHNAKTKPREEQYNSTYRVVSVLTVLHQDWLNGKEYKCKVSNKALPAPIEKTISKAKGQPREPQVYTLPPSREEMTKNQVSLSCAVKGFYPSDIAVEWESNGQPENNYKTTPPVLDSDGSFFLVSKLTVDKSRWQQGNVFSCSVMHEALHNRFTQKSLSLSPG
# light: B1 light
# notes: B7H3/CD3: two B7H3 Fabs, central CD3 Fv
# B5: Ly2428 (bispecific antibody)
# chain 1: QVQLVQSGAEVKKPGASVKVSCKASGYTFTSYVMHWVRQKPGQGLEWIGYINPYNEGTESTDKFKGRATMTSDKSTSTVYMELSSLRSEDTAVYYCASIYYGYEGTYFGVWGQGTLVTVSSASTKGPSVFPLAPSSKSTSGGTAALGCLVKDYFPEPVTVSWNSGALTSGVHTFPAVLQSSGLYSLSSVVTVPSSSLGTQTYICNVNHKPSNTKVDKKVEPKSCGGGGSGGGGSGGGGSGGGGSEVQLVESGGGLVQPGGSLRLSCAASGFTFTNYGLHWVRQAPGKGLEWVSSISPSGGVTYYRDSVKGRFTISRDNSKNTLYLQMNSLRAEDTAVYYCAKPFLGWGGANWIAHWGQGTLVTVSSGGGGSDKTHTCPPCPAPEAAGPSVFLFPPKPKDTLMISRTPEVTCVVVDVSHEDPEVKFNWYVDGVEVHNAKTKPREEQYNSTYRVVSVLTVLHQDWLNGKEYKCKVSNKALPAPIEKTISKAKGQPREPQVYTLPPSREEMTKNQVSLWCLVKGFYPSDIAVEWESNGQPENNYKTTPPVLDSDGSFFLYSKLTVDKSRWQQGNVFSCSVMHEALHNHYTQKSLSLSPG
# chain 2: QVQLVQSGAEVKKPGASVKVSCKASGYTFTSYVMHWVRQKPGQGLEWIGYINPYNEGTESTDKFKGRATMTSDKSTSTVYMELSSLRSEDTAVYYCASIYYGYEGTYFGVWGQGTLVTVSSASTKGPSVFPLAPSSKSTSGGTAALGCLVKDYFPEPVTVSWNSGALTSGVHTFPAVLQSSGLYSLSSVVTVPSSSLGTQTYICNVNHKPSNTKVDKKVEPKSCGGGGSGGGGSGGGGSGGGGSDIQMTQSPSSLSASVGDRVTITCLASEDISNDLAWYQQKPGKAPKLLIYFVDRLLDGVPSRFSGSGSGTDFTLTISSLQPEDFATYYCQQSYKYPPTFGQGTKLEIKGGGGSDKTHTCPPCPAPEAAGPSVFLFPPKPKDTLMISRTPEVTCVVVDVSHEDPEVKFNWYVDGVEVHNAKTKPREEQYNSTYRVVSVLTVLHQDWLNGKEYKCKVSNKALPAPIEKTISKAKGQPREPQVYTLPPSREEMTKNQVSLSCAVKGFYPSDIAVEWESNGQPENNYKTTPPVLDSDGSFFLVSKLTVDKSRWQQGNVFSCSVMHEALHNRFTQKSLSLSPG
# light: B1 light
# notes: B7H3/CD40: two B7H3 Fabs, central CD40 Fv (TM559)
# How the values were obtained:
# B7H3 [1] = biological target: T1, B7H3; assay: ELISA or FCM (Example 2)
# B7H3 [2] = biological target: T2, B7H3; assay: FCM or ELISA
Binder,binding result (B7H3 [1]),binding result (B7H3 [2])
B1,binds,–
B2,–,binds
B3,–,binds
B4,–,binds
B5,–,binds
